Target: MN (Homo sapiens, UniProt Q16790)
Test: Surface plasmon resonance (BIAcore) binding to MN protein
Design: The MN protein represents the entire extra-cellular domain of the protein with a C-terminal histag for purification; His tag (C); made in house; host or cells: HKB-11 (mammalian cell line)
Conditions: soluble MN, panning-derived full-length antibodies, read-out: Affinity (Kd)
Procedure: The binding interactions between MN protein and the antibodies of this invention were analyzed using surface plasmon resonance technology on a BIAcore 3000 instrument (BIAcore, Uppsala, Sweden). For the binding of full-length IgGs (1e4, 1aa1, and 3ee9), goat anti-human IgG Fc was covalently coupled to the CM5 biosensor chip at high density using a standard amine coupling kit (BIAcore, Uppsala, Sweden). A capture assay was then used to bind these IgG to the anti-human IgG Fc-immobilized surface, aiming for a 300 response unit BIAcore signal. […] After ligand binding, the flow rate was then increased to 25 μl/min and various concentrations of MN analyte (e.g., range of 50 nM to 1 nM) were flowed over the surface for 10 minutes such that the association phase could be monitored. […] The binding of Fabs to MN was similarly determined except that an anti-human-Fab IgG was immobilized onto the chip and used to capture the Fabs prior to the assessment of MN binding.
Binding interactions between HKB11-expressed human MN protein and human full-length anti-MN MAbs were analyzed using surface plasmon resonance technology on a BIAcore 3000 instrument (BIAcore, Uppsala, Sweden). […] After ligand binding, flow rate was increased to 25 ul/min and MN analyte (50 nM to 1 nM) was flowed over the surface for 10 min such that the association phase could be monitored. […]

B1: 3a4: anti-MN antibody; CDRs SEQ ID NOS: 60, 66, 73, 108, 110, and 112 (antibody, V domains shown)
VH: QVELVESGGGLVQPGGSLRLSCAASGFTFSDYSINWVRQAPGKGLEYVSNISYSGSSTYYADSVKGRFTISRDNSKNTLYLQMNSLRAEDTAVYYCARFKYSGGSDSWGQGTLVTVSS
VL: DIELTQPPSVSVAPGQTARISCSGDNLPDFYVHWYQQKPGQAPVLVISEDNKRPSGIPERFSGSNSGNTATLTISGTQAEDEADYYCSTYGYTYSYSVFGGGTKLTVL
Kd: 1 nM
